Data on one protein can be found in paper doi:10.1101/2024.07.25.605195 (bioRxiv, 2024).

“And” between values parts separate entries of the source, which are not always exact repeats. Equal values may be shown once.

The series concerns the molecule itself. The experiment in a line: cryo-EM structure.

B1: mouse seipin, recombinant, purified from Expi293 cells co-expressing Adig (natural protein, UniProt Q9Z2E9 1-383, looked up)
chain: MVNDPPVPALLWAQEVGHVLAGRARRLMLQFGVLFCTILLLLWVSVFLYGSFYYSYMPTVSHLSPVHFHYRTDCDSSTASLCSFPVANVSLAKSGRDRVLMYGQPYRVTLELELPESPVNQDLGMFLVTVSCYTRGGRIISTSSRSVMLHYRSQLLQVLDTLLFSSLLLFGFAEQKQLLEVELYSDYRENSYVPTTGAIIEIHSKRIQMYGAYLRIHAHFTGLRYLLYNFPMTCAFVGVASNFTFLSVIVLFSYMQWVWGAVWPRHRFSLQVNIRQRDNSHHGAPRRISRHQPGQESTQQSDVTEDGESPEDPSGTEGQLSEEEKPEKRPLNGEEEQEPEASDGSWEDAALLTEANPPTSASASALAPETLGSLRQRPTCSSS
In the case of B1, the stoichiometry N (commonly a count of units in the complex or per binding partner) is 11 and 12.
